B1: E3 ubiquitin-protein ligase RNF146 (Homo sapiens), Q9NTX7 (parent)
chain: MMAGCGEIDHSINMLPTNRKANESCSNTAPSLTVPECAICLQTCVHPVSLPCKHVFCYLCVKGASWLGKRCALCRQEIPEDFLDKPTLLSPEELKAASRGNGEYAWYYEGRNGWWQYDERTSRELEDAFSKGKKNTEMLIAGFLYVADLENMVQYRRNEHGRRRKIKRDIIDIPKKGVAGLRLDCDANTVNLARESSADGADSVSAQSGASVQPLVSSVRPLTSVDGQLTSPATPSPDASTSLEDSFAHLQLSGDNTAERSHRGEGEEDHESPSSGRVPAPDTSIEETESDASSDSEDVSAVVAQHSLTQQRLLVSNANQTVPDRSDRSGTDRSVAGGGTVSVSVRSRRPDGQCTVTEV

Variants of B1 are the subject of the first test. The note with it: with tnks1_human TNKS.
On to G200V, for which the “effect of a mutation on the interaction” value was “decreasing interaction strength”. With G200V;G338V;G339V, the “effect of a mutation on the interaction” value was “decreasing interaction strength”.

In the next test the parent is B1. The following applies: with tnks1_human TNKS. This is another data set of the same source.
Take G338V;G339V: the “effect of a mutation on the interaction” value is “decreasing interaction strength”.
